Data: US20140212458A1
“And” between values parts separate entries of the source, which are not always exact repeats. Equal values may be shown once.

What was measured:
[1] = target: BG505 SOSIP.664-D7324 gp140 trimer (HIV-1 BG505 (clade A)); assay: D7324-capture ELISA, average of 2-6 titrations
[2] = target: BG505 SOSIP.664 gp140 trimer (HIV-1 BG505 (clade A)); assay: ITC, antibody titrated into trimer
[3] = target: BG505 SOSIP.664 gp140 trimer (HIV-1 BG505 (clade A)); assay: ITC, two-site model
[4] = target: BG505 gp120-D7324 monomer (HIV-1 BG505 (clade A)); assay: D7324-capture ELISA (panel A)
[5] = target: BG505 SOSIP.664-D7324 gp140 trimer (HIV-1 BG505 (clade A)); assay: D7324-capture ELISA (panel A)
[6] = target: BG505 SOSIP.664-D7324 gp140 trimer (HIV-1 BG505 (clade A)); assay: D7324-capture ELISA (panel B)
[7] = target: BG505 SOSIP.664 gp140 trimer (HIV-1 BG505 (clade A)); assay: negative stain EM, 2D class averages; Fab 240 nM, trimer 14 nM
[8] = target: BG505 SOSIP.664 gp140 trimer (HIV-1 BG505 (clade A)); assay: negative stain EM, 2D class averages; Fab 600 nM, trimer 40 nM
[9] = target: BG505 SOSIP.664 gp140 trimer (HIV-1 BG505 (clade A)); assay: negative stain EM
[10] = target: BG505 gp120-D7324 monomer in the presence of sCD4 (HIV-1 BG505 (clade A)); assay: D7324-capture ELISA with sCD4 (panel B)
[11] = target: BG505 gp41ECTO-His (HIV-1 BG505 (clade A)); assay: Ni-NTA-capture ELISA (panel C)
[12] = target: BG505 SOSIP.664 gp140 trimer (HIV-1 BG505 (clade A)); assay: negative stain EM, 2D class averages; Fab 860 nM, trimer 48 nM
[13] = target: recombinant HIV-1 envelope glycoprotein gp120 BG505 clade A (HIV-1 BG505 (clade A)); assay: ELISA on BG505 gp120
[14] = target: BG505 SOSIP.664-D7324 gp140 trimer (HIV-1 BG505 (clade A)); assay: D7324-capture ELISA (panel D)
[15] = target: BG505 gp120 monomer (HIV-1 BG505 (clade A)); assay: ITC, Fab titrated into Env, 25 C
[16] = target: BG505 SOSIP.664 gp140 trimer (HIV-1 BG505 (clade A)); assay: ITC, Fab titrated into Env, 25 C
[17] = target: BG505 SOSIP.664 gp140 trimer (HIV-1 BG505 (clade A)); assay: SDS-PAGE of SEC fractions, ImageJ
[18] = target: BG505 SOSIP.664 gp140 trimer (HIV-1 BG505 (clade A)); assay: ITC
[19] = target: BG505 SOSIP.664 gp140 trimer (HIV-1 BG505 (clade A)); assay: ITC, Fab titrated into trimer; footnote f: data previously described elsewhere (Julien 2013, the applicants' own PG9:trimer study, also an example of this filing)
[20] = target: BG505 gp120 monomer (HIV-1 BG505 (clade A)); assay: ITC
[21] = target: BG505 SOSIP.664 gp140 trimer (HIV-1 BG505 (clade A)); assay: ITC; remark: listed apart in the source
[22] = target: BG505 SOSIP.664 gp140 trimer (HIV-1 BG505 (clade A)); assay: negative stain EM (not shown)
[23] = target: BG505 SOSIP.664-His gp140 trimer (HIV-1 BG505 (clade A)); assay: SPR, trimer on NTA chip, IgG 1,000 nM
[24] = target: JR-FL gp120 core with mini V3 (HIV-1 JR-FL); assay: ITC
[25] = target: BG505 SOSIP.664-His gp140 trimer (HIV-1 BG505 (clade A)); assay: Ni-NTA-capture ELISA (panel C)
[26] = target: BG505 SOSIP.664 gp140 trimer (HIV-1 BG505 (clade A)); assay: negative stain EM, 2D class averages; Fab 480 nM, trimer 44 nM

Substance: 1NC9 (antibody)
- EC50 [1]: 0.735 µg/mL

Substance: 2G12 (antibody)
- -TΔS [2]: 28.4 kcal/mol
- Kd [2]: 16 nM and 2.4 µg/mL
- N (stoichiometry of binding) [2]: 2.4
- ΔG [2]: -10.6 kcal/mol
- ΔH [2]: -39 kcal/mol
- Kd2 (second, low affinity binding event) [3]: 12.3 µM
- EC50 (read off the curve) [4]: 0.01 µg/mL
- EC50 (read off the curve) [5]: 0.02 µg/mL
- EC50 [1]: 0.027 µg/mL

Substance: 3BC176 (antibody)
- EC50 [1]: 5.65 µg/mL

Substance: 3BC315 (antibody)
- EC50 [1]: 0.962 µg/mL

Substance: 3BNC60 (antibody)
- EC50 [1]: 0.095 µg/mL
- EC50 (read off the curve) [6]: 0.03 µg/mL

Substance: 3BNC117 (antibody)
- EC50 [1]: 0.102 µg/mL
- EC50 (read off the curve) [6]: 0.1 µg/mL

Substance: 7B2 (antibody)
- EC50 [1]: > 10 µg/mL

Substance: 8ANC195 (antibody)
- EC50 [1]: 2.06 µg/mL

Substance: 12A12 (antibody)
- EC50 [1]: 0.08 µg/mL

Substance: 14e Fab
- % 1 Fab bound [7]: 17%
- % 2 Fabs bound [7]: 2%
- % 3 Fabs bound [7]: 0%
- % trimer alone [7]: 81%
- particles, 1 Fab bound [7]: 4440 particles
- particles, 2 Fabs bound [7]: 610 particles
- particles, 3 Fabs bound [7]: 0 particles
- particles, trimer alone [7]: 21900 particles

Substance: 19b Fab
- % 1 Fab bound [8]: 30%
- % 2 Fabs bound [8]: 8%
- % 3 Fabs bound [8]: 1%
- % trimer alone [8]: 61%
- particles, 1 Fab bound [8]: 12500 particles
- particles, 2 Fabs bound [8]: 3050 particles
- particles, 3 Fabs bound [8]: 211 particles
- particles, trimer alone [8]: 25100 particles
- % of trimers occupied by one, two or three Fabs [9]: 39%

Substance: 45-46 (antibody)
- EC50 [1]: 0.127 µg/mL

Substance: A32 (antibody)
- EC50 [1]: > 10 µg/mL
- EC50 (read off the curve) [10]: 0.04 µg/mL

Substance: CD4-IgG2 (Fc fusion)
- EC50 [1]: 0.155 µg/mL

Substance: CH01 (antibody)
- EC50 [1]: 2.78 µg/mL

Substance: CH31 (antibody)
- EC50 [1]: 0.347 µg/mL

Substance: CH103 (antibody)
- EC50 [1]: 0.792 µg/mL

Substance: CH106 (antibody)
- EC50 [1]: 2.57 µg/mL

Substance: F91 (antibody)
- EC50 [1]: > 10 µg/mL

Substance: F105 (antibody)
- EC50 [1]: > 10 µg/mL

Substance: F240 (antibody)
- EC50 (read off the curve) [11]: 0.01 µg/mL
- EC50 [1]: > 10 µg/mL

Substance: F240 Fab
- % 1 Fab bound [12]: 2%
- % 2 Fabs bound [12]: 0%
- % 3 Fabs bound [12]: 0%
- % trimer alone [12]: 98%
- particles, 1 Fab bound [12]: 154 particles
- particles, 2 Fabs bound [12]: 0 particles
- particles, 3 Fabs bound [12]: 0 particles
- particles, trimer alone [12]: 6260 particles

Substance: HJ16 (antibody)
- EC50 [1]: 4.38 µg/mL

Substance: PG9 (antibody)
- EC50 (read off the curve) [13]: 0.04 µg/mL
- EC50 [1]: 0.343 µg/mL
- EC50 (read off the curve) [14]: 0.4 µg/mL

Substance: PG9 Fab
- -TΔS [15]: 17.2 kcal/mol
- Kd [15]: 31 nM
- N (stoichiometry of binding) [15]: 0.4
- ΔG [15]: -10.2 kcal/mol
- ΔH [15]: -27.4 kcal/mol
- ΔG [16]: -10.1 kcal/mol
- ΔH [16]: -20.6 kcal/mol
- gp140 protomers per PG9 Fab [17]: 3
- Kd [18]: 30 nM
- -TΔS [19]: 7.8 kcal/mol
- Kd [19]: 11 nM and 0.55 µg/mL
- N (stoichiometry of binding) [19]: 0.8
- ΔG [19]: -10.9 kcal/mol
- ΔH [19]: -18.7 kcal/mol
- Kd [20]: 20 to 30 nM
- Kd [21]: 20 to 30 nM

Substance: PG16 (antibody)
- EC50 (read off the curve) [13]: 0.2 µg/mL
- EC50 [1]: 0.199 µg/mL
- EC50 (read off the curve) [14]: 0.1 µg/mL

Substance: PGT121 (antibody)
- EC50 [1]: 0.095 µg/mL
- EC50 (read off the curve) [6]: 0.09 µg/mL

Substance: PGT121 Fab
- -TΔS [2]: 20.6 kcal/mol
- Kd [2]: 151 nM and 7.55 µg/mL
- N (stoichiometry of binding) [2]: 2.4
- ΔG [2]: -9.3 kcal/mol
- ΔH [2]: -29.9 kcal/mol

Substance: PGT122 (antibody)
- EC50 [1]: 0.159 µg/mL

Substance: PGT122 Fab
- % of images with no Fabs bound [22]: < 3%
- % of images with three Fabs bound [22]: > 50%

Substance: PGT123 (antibody)
- EC50 [1]: 0.127 µg/mL

Substance: PGT125 (antibody)
- EC50 [1]: 0.047 µg/mL
- EC50 (read off the curve) [6]: 0.04 µg/mL

Substance: PGT126 (antibody)
- EC50 [1]: 0.026 µg/mL
- EC50 (read off the curve) [6]: 0.03 µg/mL

Substance: PGT127 (antibody)
- EC50 [1]: 0.066 µg/mL

Substance: PGT127 Fab
- Kd [18]: 70 nM
- N (stoichiometry of binding) [21]: < 3

Substance: PGT128 (antibody)
- plateau response (RU) [23]: 750 RU
- EC50 (read off the curve) [4]: 0.04 µg/mL
- EC50 (read off the curve) [5]: 0.04 µg/mL
- EC50 [1]: 0.058 µg/mL
- EC50 (read off the curve) [6]: 0.04 µg/mL

Substance: PGT128 Fab
- -TΔS [2]: 11.6 kcal/mol
- Kd [2]: 5.7 nM and 0.285 µg/mL
- N (stoichiometry of binding) [2]: 2.3
- ΔG [2]: -11.2 kcal/mol
- ΔH [2]: -22.8 kcal/mol
- Kd2 (second, low affinity binding event) [3]: 20 µM

Substance: PGT130 (antibody)
- EC50 [1]: 0.524 µg/mL

Substance: PGT135 (antibody)
- EC50 [1]: 0.521 µg/mL

Substance: PGT135 Fab
- Kd [24]: 82 nM
- % of images with no Fabs bound [22]: < 3%
- % of images with three Fabs bound [22]: > 50%

Substance: PGT136 (antibody)
- EC50 [1]: 0.434 µg/mL

Substance: PGT145 (antibody)
- EC50 [1]: 0.114 µg/mL
- EC50 (read off the curve) [14]: 0.06 µg/mL

Substance: PGV04 (antibody)
- EC50 [1]: 0.227 µg/mL

Substance: PGV04 Fab
- % of images with no Fabs bound [22]: < 3%
- % of images with three Fabs bound [22]: > 50%

Substance: VRC01 (antibody)
- EC50 (read off the curve) [25]: 0.03 µg/mL
- EC50 [1]: 0.163 µg/mL

Substance: VRC03 (antibody)
- EC50 [1]: 0.647 µg/mL
- EC50 (read off the curve) [6]: 0.6 µg/mL

Substance: VRC06 (antibody)
- EC50 [1]: 1.1 µg/mL

Substance: VRC06b (antibody)
- EC50 [1]: 0.345 µg/mL
- EC50 (read off the curve) [6]: 0.4 µg/mL

Substance: X5 (antibody)
- EC50 [1]: > 10 µg/mL

Substance: b6 (antibody)
- plateau response (RU) [23]: 30 RU
- EC50 (read off the curve) [4]: 0.09 µg/mL
- EC50 [1]: 0.871 µg/mL

Substance: b6 Fab
- % 1 Fab bound [26]: 6%
- % 2 Fabs bound [26]: 0%
- % 3 Fabs bound [26]: 0%
- % trimer alone [26]: 94%
- particles, 1 Fab bound [26]: 354 particles
- particles, 2 Fabs bound [26]: 0 particles
- particles, 3 Fabs bound [26]: 0 particles
- particles, trimer alone [26]: 5610 particles

Substance: b12 (antibody)
- EC50 (read off the curve) [13]: 0.03 µg/mL
- EC50 [1]: > 10 µg/mL
